From doi:10.1101/580449 (bioRxiv, 2019)

Molecular target: the molecule itself
Experiment: crystal structure

B1: CMP-sialic acid transporter homologue from Zea mays (CSTZM), wildtype-like crystallization construct (natural protein)
chain: MQWYLVAALLTILTSSQGILTTLSQSNGKYNYDYATIPFLAELFKLSVSGFFLWKECRTSPSVRMTKEWRSVRLYVVPSVIYLIHNNVQFATLTYVDPSTYQIMGNLKIVTTGILFRLVLKRKLSNIQWMAIVLLAVGTTTSQVKGCGDSPCDSLFSAPLEGYLLGILSACLSALAGVYTEYLMKKNNDSLYWQNVQLYTFGVIFNMGWLIYGDFKAGFELGPWWQRLFNGYSITTWMVVFNLGSTGLLVSWLMKYSDNIVKVYSTSMAMLLTMVLSIYLFSVKATIQLFLGIIICIISLQMYFMPVHMLIELPQTLPVTSKENLYFQ
- binding result: binds
